Assay [1] concerns the target T1, human 4-1BB, full-length, expressed on cells (human, UniProt Q07011 24-255). Description: cell-based or functional assay.
The target in assay [2] is T2, Cyno 4-1BB-Flag, on HEK293-6e cells (Cynomolgus (Macaca fascicularis)).
T2 construct: also called Cynomolgus 4-1BB; CL#11070
T2 chain: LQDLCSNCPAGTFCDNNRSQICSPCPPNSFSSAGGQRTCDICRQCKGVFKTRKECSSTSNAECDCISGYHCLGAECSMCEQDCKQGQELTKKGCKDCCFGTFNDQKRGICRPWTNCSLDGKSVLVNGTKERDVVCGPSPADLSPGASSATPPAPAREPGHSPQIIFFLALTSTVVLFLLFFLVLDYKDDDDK
Description: CellInsight cell binding, transfected HEK293-6e.

In assay [3] the target is T3, Mouse 4-1BB-Flag, on HEK293-6e cells (Mouse (Mus musculus), UniProt P20334 24-208).
T3 construct: also called CL#11063
Description: CellInsight cell binding, transfected HEK293-6e.

The target of assay [4] is T4, purified human monomeric 4-1BB (human, UniProt Q07011 24-186).
T4 construct: the assay used the 4-1BB part released by Factor Xa with the Fc removed; also called h4-1BB; human 4-1BB
Description: SPR, Ab captured, monomeric 4-1BB injected. On the technique in general: Surface plasmon resonance follows binding to a sensor surface in real time, without labels.

Assay [5] concerns the target T1, human 4-1BB, full-length, expressed on …. Kind of assay: flow cytometry, Jurkat-4-1BB. (Flow cytometry measures light scatter and fluorescence of single cells or particles in a stream.)
Assay [6] has as its target T4, purified human monomeric 4-1BB. Description: SPR, mean n=3.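 Also: antibodies captured on anti-human Fc chip, 4-1BB injected as five-point two-fold series from 40 nM by single-cycle kinetics at 25 °C, sensorgrams fitted to 1:1 Langmuir model.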
The target of assay [7] is T5, truncated human 4-1BB domain 3 and 4 only construct (residues 86-255), on cells (human, UniProt Q07011 86-255).
T5 construct: on 293E6 cells co-transfected with mouse 4-1BB; also called 4-1BB domain 3 and 4 only construct (amino acids 86-255)
Description: flow cytometry, transfected 293E6 cells.

Assay [8] concerns the target T6, 4-1BB dog (dog 4-1BB ECD-TEV-IgG1 Fc-10x His) (dog).
T6 construct: Uniprot E2R1R9 residues 24-186 fused to TEV site, IgG1 Fc and His tag
Kind of assay: ELISA, coated 4-1BB-Fc. In general terms: ELISA stands for enzyme-linked immunosorbent assay.

For assay [9], the target named is T7, 4-1BB human (human 4-1BB ECD-TEV-IgG1 hinge-CH2-CH3-10x His) (human).
T7 construct: 4-1BB residues 24-186 fused to TEV site, IgG1 Fc and His tag; the entry is the whole fusion; also called soluble human 4-1BB-Fc
Kind of assay: ELISA, coated 4-1BB-Fc.

Assay [10] deals with T8, 4-1BB dog-human (human-dog chimeric 4-1BB ECD-TEV-IgG1 Fc-10x His) (human with dog residues in domain 4).
T8 construct: Human 4-1BB ECD with K115Q, C121R, R134Q, R154S and V156A (already in the entry); also called dog-human chimeric 4-1BB; hybrid 4-1BB
Description: ELISA, coated 4-1BB-Fc.

T7 sequence (chain, as listed by the source limits assumed): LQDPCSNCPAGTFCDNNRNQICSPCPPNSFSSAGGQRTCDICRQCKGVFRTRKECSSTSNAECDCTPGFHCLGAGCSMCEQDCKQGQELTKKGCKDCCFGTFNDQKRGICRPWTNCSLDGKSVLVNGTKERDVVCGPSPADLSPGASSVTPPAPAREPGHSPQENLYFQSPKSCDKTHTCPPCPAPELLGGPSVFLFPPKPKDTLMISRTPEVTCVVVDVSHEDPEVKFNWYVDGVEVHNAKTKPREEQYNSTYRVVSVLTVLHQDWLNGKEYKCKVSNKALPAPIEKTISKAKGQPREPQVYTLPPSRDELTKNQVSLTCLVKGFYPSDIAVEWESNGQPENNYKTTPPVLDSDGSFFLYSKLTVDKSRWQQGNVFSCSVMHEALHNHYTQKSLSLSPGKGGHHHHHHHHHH
T4 sequence (Q07011 other isoform, or with tags, fused parts or gaps limits assumed): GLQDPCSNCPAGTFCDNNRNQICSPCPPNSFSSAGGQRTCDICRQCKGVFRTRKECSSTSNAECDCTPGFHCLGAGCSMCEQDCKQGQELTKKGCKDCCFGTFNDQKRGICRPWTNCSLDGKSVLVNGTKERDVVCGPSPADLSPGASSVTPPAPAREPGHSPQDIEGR
T3 sequence (P20334 other isoform, or with tags, fused parts or gaps limits assumed): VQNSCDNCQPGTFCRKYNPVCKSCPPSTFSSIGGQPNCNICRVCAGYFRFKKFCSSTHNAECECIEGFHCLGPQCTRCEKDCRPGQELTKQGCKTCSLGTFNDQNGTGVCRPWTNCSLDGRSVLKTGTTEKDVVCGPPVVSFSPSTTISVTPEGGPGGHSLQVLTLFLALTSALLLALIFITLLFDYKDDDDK
T1 sequence (Q07011 24-255): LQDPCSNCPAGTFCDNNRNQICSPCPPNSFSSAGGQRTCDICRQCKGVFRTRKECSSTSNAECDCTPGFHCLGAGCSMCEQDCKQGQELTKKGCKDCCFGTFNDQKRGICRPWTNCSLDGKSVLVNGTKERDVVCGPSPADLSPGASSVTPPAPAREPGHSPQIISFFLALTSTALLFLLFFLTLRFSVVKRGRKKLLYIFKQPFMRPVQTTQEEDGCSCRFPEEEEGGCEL
T6 sequence (chain, as listed by the source limits assumed): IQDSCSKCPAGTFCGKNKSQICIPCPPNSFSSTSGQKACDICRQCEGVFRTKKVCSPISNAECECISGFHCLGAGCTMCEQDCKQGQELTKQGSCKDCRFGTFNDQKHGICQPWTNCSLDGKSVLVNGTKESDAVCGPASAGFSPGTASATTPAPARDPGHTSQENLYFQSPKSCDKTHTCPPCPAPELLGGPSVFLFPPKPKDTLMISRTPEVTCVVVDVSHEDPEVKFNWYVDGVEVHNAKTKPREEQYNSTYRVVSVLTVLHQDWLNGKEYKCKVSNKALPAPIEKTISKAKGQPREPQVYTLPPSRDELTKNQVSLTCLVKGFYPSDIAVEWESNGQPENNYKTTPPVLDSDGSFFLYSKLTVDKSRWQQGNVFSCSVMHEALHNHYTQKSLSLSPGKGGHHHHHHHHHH
T5 sequence (Q07011 86-255): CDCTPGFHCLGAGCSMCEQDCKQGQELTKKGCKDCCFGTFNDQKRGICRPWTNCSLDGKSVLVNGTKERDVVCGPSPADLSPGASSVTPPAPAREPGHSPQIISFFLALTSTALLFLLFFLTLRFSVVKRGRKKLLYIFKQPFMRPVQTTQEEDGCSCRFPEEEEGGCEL
T8 sequence (chain, as listed by the source mutant limits assumed): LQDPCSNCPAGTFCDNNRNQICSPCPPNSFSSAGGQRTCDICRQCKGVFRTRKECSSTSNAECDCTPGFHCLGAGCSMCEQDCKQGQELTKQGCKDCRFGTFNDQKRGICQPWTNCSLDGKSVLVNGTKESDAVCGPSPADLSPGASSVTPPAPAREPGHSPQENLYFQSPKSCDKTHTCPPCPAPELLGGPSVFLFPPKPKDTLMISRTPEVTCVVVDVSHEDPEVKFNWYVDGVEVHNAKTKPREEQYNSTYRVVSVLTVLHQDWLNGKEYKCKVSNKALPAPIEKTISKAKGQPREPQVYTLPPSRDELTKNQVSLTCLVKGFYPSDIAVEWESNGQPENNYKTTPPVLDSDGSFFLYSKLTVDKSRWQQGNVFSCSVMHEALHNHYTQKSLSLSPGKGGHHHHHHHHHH

B1: v16601 (bispecific antibody)
VH: EVQLVQSGAEVKKPGESLRISCKGSGYSFSTYWISWVRQMPGKGLEWMGKIYPGDSYTNYSPSFQGQVTISADKSISTAYLQWSSLKASDTAMYYCARGYGIFDYWGQGTLVTVSS
VL: SYELTQPPSVSVSPGQTASITCSGDNIGDQYAHWYQQKPGQSPVLVIYQDKNRPSGIPERFSGSNSGNTATLTISGTQAMDEADYYCATYTGFGSLAVFGGGTKLTVL
scFv: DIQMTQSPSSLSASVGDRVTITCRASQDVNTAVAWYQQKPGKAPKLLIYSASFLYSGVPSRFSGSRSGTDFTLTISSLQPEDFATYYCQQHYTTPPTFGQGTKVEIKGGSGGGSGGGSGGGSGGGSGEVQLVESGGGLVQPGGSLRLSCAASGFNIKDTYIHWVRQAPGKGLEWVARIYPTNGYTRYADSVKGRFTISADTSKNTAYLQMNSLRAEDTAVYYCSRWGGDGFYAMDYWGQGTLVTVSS
As to B1, in [1], the “EC50 (pM), 4-1BB NF-kB-luciferase Jurkat reporter in co-culture with SKOV3” value (“EC50 (pM)” below) is 2620 pM and the “Max activity (RLU), 4-1BB NF-kB-luciferase Jurkat reporter” value (“Max activity (RLU)” for short) was found to be 27900 RLU.

B2: v16605 (bispecific antibody)
VH: EVQLVQSGAEVKKPGESLRISCKGSGYSFSTYWISWVRQMPGKGLEWMGKIYPGDSYTNYSPSFQGQVTISADKSISTAYLQWSSLKASDTAMYYCARGYGIFDYWGQGTLVTVSS
VL: SYELTQPPSVSVSPGQTASITCSGDNIGDQYAHWYQQKPGQSPVLVIYQDKNRPSGIPERFSGSNSGNTATLTISGTQAMDEADYYCATYTGFGSLAVFGGGTKLTVL
scFv: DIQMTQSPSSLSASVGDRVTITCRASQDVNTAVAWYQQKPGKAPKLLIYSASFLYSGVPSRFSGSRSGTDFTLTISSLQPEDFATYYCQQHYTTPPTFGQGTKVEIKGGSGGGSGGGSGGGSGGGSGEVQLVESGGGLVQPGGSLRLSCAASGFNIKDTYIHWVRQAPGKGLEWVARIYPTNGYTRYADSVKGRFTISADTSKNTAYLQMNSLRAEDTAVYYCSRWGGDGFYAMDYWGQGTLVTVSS
Consider B2, for which, in assay [1], the “EC50 (pM)” value is 401 pM and the “Max activity (RLU)” value worked out at 92000 RLU.

B3: v20031 (antibody, human IgG1, kappa, L234A L235A, V domains shown)
VH: QVQLQQSGPELVKPGASVKISCKASGYVFSSYWMNWVKQRPGKGLEWIGRIYPGNGDTNYNGKFKDKATLTADKFSSTAYMQLSNLTSEDSAVYFCASYYELDYWGQGTSVTVSS
VL: DVVMTQTPLSLPVSLGDQASISCRSSQSLVHSNGNTYLHWYLQKPGQSPKLLIYKVSNRFFGVPDRFSGSGSGTDFTLKISRVEAEDLGVYFCSQTTYVPLTFGAGTKLELKR
notes: Mouse-human chimera; also called 4B11; printed as 4B1
As to B3, the binding result in [2] and in [3] was “no binding” each time.

B4: v28695 (antibody, human IgG1, kappa, L234A L235A, V domains shown)
VH: QVQLQESGPGLVKPSETLSLTCTVSGFSLISYGVHWIRQPPGKGLEWIGVIWSGGSTDYNPSLKSRVTISVDTSKNQFSLKLSSVTAADTAVYYCARNPLTATVMDYWGQGTLVTVSS
VL: DIQMTQSPSSLSASVGDRVTITCRASQNVGTNVAWFQQKPGKAPKSLIYSASYRDSGVPSRFSGSGSGTDFTLTISSLQPEDFATYYCQQYNSYPLTFGGGTKVEIKR
notes: also called humanized 5G8 H1L1
With B4, the binding result in [4] is “no binding”.

B5: v20020 (antibody, V domains shown)
VH: QVQLQQPGAELVKPGASVKLSCKASGYTFTSFWINWVKQRPGQGLEWIGNIYPDSSSTNYNEKFKNKATLTVDTSSSTAYMQLSSLTSDDSAVYFCARSLTFDYWGQGTTLTVSS
VL: DVVMTQTPLSLPVSLGDQASISCRSSQSIVHSNGNTYLEWYLQKPGQSPKLLIYKVSNRFSGVPDRFSARGSGTDFSLKISRVEAEDLGVYYCFQGSHVPYTFGGGTKLEIK
notes: Mouse-human chimera: mouse VH on human CH1-hinge-CH2-CH3 (IgG1), mouse VL on human kappa CL; also called 1B2
As for B5, the binding result in assay [2] and in assay [3] was “no binding” each time.

B6: v20023 (antibody, human IgG1, kappa, L234A L235A, V domains shown)
VH: EVQLVESGGGLVKPGGSRKLSCAASGFTFSEFGMHWVRQAPDKGLKWVAYISSGGSTIYYADTVKGRFTISRDNAKNTLFLQMTSLRSEDTAMYYCARDWVDYWGQGTTLTVSS
VL: NIVMTQSPKSMSMSVGERVTLSCKASENVGSYVSWYQQKPEKSPKLLIYGASNRYTGVPDRFTGSGSATDFTLTISSVQAEDLADYHCGQSYSYPLTFGAGTKLELKR
notes: Mouse-human chimera; also called 1G1; 1G1 mouse-human parental chimera
Usually EC50 stands for the midpoint of the concentration-response curve. High values mean a need for much substance, low ones an effect from little substance. By Kd is commonly meant a measure of binding affinity in units of concentration. Read a high Kd as weaker binding. B6 displayed an EC50 in assay [5] of 0.337 nM. Further, binding in assay [6] was characterised by a dissociation constant (Kd) of 49.6 nM. The binding result in assay [7] is given as “no binding (tested: 2.5 µg of antibody)”; in [8], “binds”; in assay [9], “binds”; in assay [2], “binds”; in [3] it was “no binding”.

B7: v20036 (antibody, human IgG1, kappa, L234A L235A, V domains shown)
VH: QVQLQESGPGLVQPTQSLSITCTVSGFSLISYGVHWVRQSPGKGLEWLGVIWSGGSTDYNAAFISRLSISKDNSKSQVFFKMNSLQADDTAIYYCARNPLTATVMDYWGQGTSVTVSS
VL: DIVMTQSQKFMSTSVGDRVSVTCKASQNVGTNVAWYQQKPGQSPKALIYSASYRDSGVPDRFTGSGSGTDFTLTISNVQSEDLAEYLCQQYNSYPLTFGAGTKLELKR
notes: Mouse-human chimera; also called 5G8; 5G8 mouse-human parental chimera
B7 came in with an EC50 in assay [5] of 16.9 nM. The molecule also came in with a Kd in assay [6] of 266 nM. Further, the binding result is recorded as “no binding (tested: 2.5 µg of antibody)” in assay [7]; “no binding” in assay [8]; “binds” in assay [9]; “binds” in assay [10]; “no binding” in [3].

B8: v20027 (antibody, human IgG1, kappa, L234A L235A, V domains shown)
VH: QVQLQQPGAELVRPGASVKLSCKASGYTFTSYWINWVKQRPGQGLEWIGNIYPSDNYTNYNQKFKDKATLTVDKSSSTAYMQLSSPTSEDSAVYYCTRGGGIYYENYFDYWGQGTTLTVSS
VL: QIVLTQSPAIMSASPGEKVTMTCSASSSVSYMHWYQQKSGTSPKRWVYDTSKLASGVPARFSGSGSGTSYSLTISSMEAEDVATYYCQQWSSNPPTFGGGTKLEIKR
notes: Mouse-human chimera; also called 3D7
On to B8, for which the binding result in [9] is “no binding”.

B9: v16675 (bispecific antibody, human IgG1, lambda, L234A L235A)
heavy 1: not shown
heavy 2: EVQLVQSGAEVKKPGESLRISCKGSGYSFSTYWISWVRQMPGKGLEWMGKIYPGDSYTNYSPSFQGQVTISADKSISTAYLQWSSLKASDTAMYYCARGYGIFDYWGQGTLVTVSSASTKGPSVFPLAPSSKSTSGGTAALGCLVKDYFPEPVTVSWNSGALTSGVHTFPAVLQSSGLYSLSSVVTVPSSSLGTQTYICNVNHKPSNTKVDKKVEPKSCDKTHTCPPCPAPELLGGPSVFLFPPKPKDTLMISRTPEVTCVVVDVSHEDPEVKFNWYVDGVEVHNAKTKPREEQYNSTYRVVSVLTVLHQDWLNGKEYKCKVSNKALPAPIEKTISKAKGQPREPQVYVYPPSRDELTKNQVSLTCLVKGFYPSDIAVEWESNGQPENNYKTTPPVLDSDGSFALVSKLTVDKSRWQQGNVFSCSVMHEALHNHYTQKSLSLSPG
light: SYELTQPPSVSVSPGQTASITCSGDNIGDQYAHWYQQKPGQSPVLVIYQDKNRPSGIPERFSGSNSGNTATLTISGTQAMDEADYYCATYTGFGSLAVFGGGTKLTVLGQPKAAPSVTLFPPSSEELQANKATLVCLISDFYPGAVTVAWKADSSPVKAGVETTTPSKQSNNKYAASSYLSLTPEQWKSHRSYSCQVTHEGSTVEKTVAPTECS
Consider B9, for which, in assay [1], the “EC50 (pM)” value amounted to 56.9 pM and the “Max activity (RLU)” value was determined as 80900 RLU.

B10: v12592 (antibody, human IgG1, lambda)
heavy 1: EVQLVQSGAEVKKPGESLRISCKGSGYSFSTYWISWVRQMPGKGLEWMGKIYPGDSYTNYSPSFQGQVTISADKSISTAYLQWSSLKASDTAMYYCARGYGIFDYWGQGTLVTVSSASTKGPSVFPLAPCSRSTSESTAALGCLVKDYFPEPVTVSWNSGALTSGVHTFPAVLQSSGLYSLSSVVTVPSSNFGTQTYTCNVDHKPSNTKVDKTVEPKSCDKTHTCPPCPAPELLGGPSVFLFPPKPKDTLMISRTPEVTCVVVDVSHEDPEVKFNWYVDGVEVHNAKTKPREEQYNSTYRVVSVLTVLHQDWLNGKEYKCKVSNKALPAPIEKTISKAKGQPREPQVYVYPPSRDELTKNQVSLTCLVKGFYPSDIAVEWESNGQPENNYKTTPPVLDSDGSFALVSKLTVDKSRWQQGNVFSCSVMHEALHNHYTQKSLSLSPGK
heavy 2: not shown
light: SYELTQPPSVSVSPGQTASITCSGDNIGDQYAHWYQQKPGQSPVLVIYQDKNRPSGIPERFSGSNSGNTATLTISGTQAMDEADYYCATYTGFGSLAVFGGGTKLTVLGQPKAAPSVTLFPPSSEELQANKATLYCLISDFYPGAVTVAWKADSSPVKAGVETTTPSKQSNNKYAASSYLSITPEQWKSHRSYSCQVTHEGSTVEKTVAPTECS
notes: Control monospecific bivalent anti-4-1BB antibody, Het Fc; clones 2871, 4667, 2872; also called MOR7480.1-IG1; MOR7480.1
Regarding B10, in [2], the binding result is listed as “binds”.

B11: v16679 (bispecific antibody, human IgG1, lambda, L234A L235A)
heavy 1: not shown
heavy 2: EVQLVQSGAEVKKPGESLRISCKGSGYSFSTYWISWVRQMPGKGLEWMGKIYPGDSYTNYSPSFQGQVTISADKSISTAYLQWSSLKASDTAMYYCARGYGIFDYWGQGTLVTVSSASTKGPSVFPLAPSSKSTSGGTAALGCLVKDYFPEPVTVSWNSGALTSGVHTFPAVLQSSGLYSLSSVVTVPSSSLGTQTYICNVNHKPSNTKVDKKVEPKSCDKTHTCPPCPAPELLGGPSVFLFPPKPKDTLMISRTPEVTCVVVDVSHEDPEVKFNWYVDGVEVHNAKTKPREEQYNSTYRVVSVLTVLHQDWLNGKEYKCKVSNKALPAPIEKTISKAKGQPREPQVYVYPPSRDELTKNQVSLTCLVKGFYPSDIAVEWESNGQPENNYKTTPPVLDSDGSFALVSKLTVDKSRWQQGNVFSCSVMHEALHNHYTQKSLSLSPG
light: SYELTQPPSVSVSPGQTASITCSGDNIGDQYAHWYQQKPGQSPVLVIYQDKNRPSGIPERFSGSNSGNTATLTISGTQAMDEADYYCATYTGFGSLAVFGGGTKLTVLGQPKAAPSVTLFPPSSEELQANKATLVCLISDFYPGAVTVAWKADSSPVKAGVETTTPSKQSNNKYAASSYLSLTPEQWKSHRSYSCQVTHEGSTVEKTVAPTECS
Consider B11, for which, in [1], the “EC50 (pM)” value was 30.1 pM and the “Max activity (RLU)” value amounted to 131000 RLU.
